Source: article PMC5963676
“Also recorded” adds a separate entry of the source.

How the values were obtained:
[1] = molecular target: His-tagged pantothenate synthetase with a C-terminal extension (PS-[LCGR]), expressed from pCA24N(-GFP) (E. coli); assay: ITC
[2] = molecular target: His-tagged YfcD (putative Nudix hydrolase) expressed from pCA24N(-GFP) (E. coli); assay: ITC
[3] = molecular target: His-tagged YfcD (putative Nudix hydrolase) expressed from pCA24N(-GFP); assay: fluorescence polarisation

In the case of “His-tagged YfcD (putative Nudix hydrolase) expressed from pCA24N(-GFP) (natural protein)”, the Kd [1] is reported as 30 µM.

Molecule “His-tagged pantothenate synthetase expressed from pET28a (from UniProt P31663 1-283) (enzyme)” has a Kd [2] of 2.11 µM.

B1: FITC-labelled His-tagged pantothenate synthetase (pET28a), labelled by sortase on the N-terminal glycine (protein)
chain: MLIIETLPLLRQQIRRLRMEGKRVALVPTMGNLHDGHMKLVDEAKARADVVVVSIFVNPMQFDRPEDLARYPRTLQEDCEKLNKRKVDLVFAPSVKEIYPNGTETHTYVDVPGLSTMLEGASRPGHFRGVSTIVSKLFNLVQPDIACFGEKDFQQLALIRKMVADMGFDIEIVGVPIMRAKDGLALSSRNGYLTAEQRKIAPGLYKVLSSIADKLQAGERDLDEIITIAGQELNEKGFRADDIQIRDADTLLEVSETSKRAVILVAAWLGDARLIDNKMVELA
With B1 the K0.5 [3] was “K0.5 = 1.87 ± 0.08 μM; also recorded: K0.5 2.16 ± 0.11 μM”.
